What was measured:
[1] = biological target: catalytic domain of human MMP9 (human)
[2] = biological target: human recombinant TACE (TNFα converting enzyme) (human) (UniProt P78536)
[3] = biological target: recombinant human MMP2 (pro‐MMP2 activated with APMA) (human)
[4] = biological target: recombinant rat MMP2 (pro‐MMP2 activated with APMA) (rat)
[5] = biological target: recombinant rat MMP9 (rat pro‐MMP9) (rat) (UniProt P50282)
Chain of UniProt P50282 (P50282 20-708): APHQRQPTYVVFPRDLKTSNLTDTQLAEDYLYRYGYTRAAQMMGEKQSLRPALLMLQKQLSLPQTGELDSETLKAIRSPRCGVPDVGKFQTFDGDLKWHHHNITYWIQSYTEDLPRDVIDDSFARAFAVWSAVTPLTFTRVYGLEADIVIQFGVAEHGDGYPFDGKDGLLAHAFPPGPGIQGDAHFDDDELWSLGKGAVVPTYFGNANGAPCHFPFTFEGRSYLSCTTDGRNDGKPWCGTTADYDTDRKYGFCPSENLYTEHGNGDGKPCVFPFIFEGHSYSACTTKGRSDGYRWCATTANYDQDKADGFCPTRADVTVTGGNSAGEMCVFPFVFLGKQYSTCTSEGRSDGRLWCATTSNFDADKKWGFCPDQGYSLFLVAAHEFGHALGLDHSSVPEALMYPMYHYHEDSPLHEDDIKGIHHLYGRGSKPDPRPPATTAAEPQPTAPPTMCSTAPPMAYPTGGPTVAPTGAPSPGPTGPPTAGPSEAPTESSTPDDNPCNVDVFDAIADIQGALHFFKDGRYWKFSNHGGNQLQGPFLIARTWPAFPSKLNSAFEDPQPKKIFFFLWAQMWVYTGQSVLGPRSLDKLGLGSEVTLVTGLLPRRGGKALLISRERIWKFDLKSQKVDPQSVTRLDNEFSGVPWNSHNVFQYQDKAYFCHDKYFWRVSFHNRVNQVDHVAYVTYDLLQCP

Chain of UniProt P78536 (P78536 18-824): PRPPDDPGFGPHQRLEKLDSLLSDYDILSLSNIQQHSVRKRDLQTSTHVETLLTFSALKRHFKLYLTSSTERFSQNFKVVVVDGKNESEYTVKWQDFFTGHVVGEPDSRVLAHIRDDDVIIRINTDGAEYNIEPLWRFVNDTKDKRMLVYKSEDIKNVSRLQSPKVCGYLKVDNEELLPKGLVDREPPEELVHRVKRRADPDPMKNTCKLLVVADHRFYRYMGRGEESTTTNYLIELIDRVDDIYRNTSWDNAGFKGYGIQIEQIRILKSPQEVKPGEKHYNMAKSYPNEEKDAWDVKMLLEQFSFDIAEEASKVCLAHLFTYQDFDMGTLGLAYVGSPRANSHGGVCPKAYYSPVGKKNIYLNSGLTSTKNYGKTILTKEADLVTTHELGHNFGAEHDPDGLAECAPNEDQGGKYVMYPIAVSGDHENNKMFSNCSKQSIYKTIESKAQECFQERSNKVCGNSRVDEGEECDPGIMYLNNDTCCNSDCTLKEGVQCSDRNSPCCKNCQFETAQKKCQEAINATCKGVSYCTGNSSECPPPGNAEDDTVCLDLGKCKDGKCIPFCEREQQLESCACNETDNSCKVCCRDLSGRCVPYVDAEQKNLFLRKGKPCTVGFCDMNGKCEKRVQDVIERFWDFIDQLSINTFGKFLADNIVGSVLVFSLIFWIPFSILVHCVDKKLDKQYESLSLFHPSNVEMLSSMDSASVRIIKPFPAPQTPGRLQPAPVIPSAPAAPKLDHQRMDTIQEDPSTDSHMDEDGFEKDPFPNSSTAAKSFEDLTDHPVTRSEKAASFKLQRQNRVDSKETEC
Chain of recombinant rat MMP2 (pro‐MMP2 activated with APMA) (rat) (P33436 110-662): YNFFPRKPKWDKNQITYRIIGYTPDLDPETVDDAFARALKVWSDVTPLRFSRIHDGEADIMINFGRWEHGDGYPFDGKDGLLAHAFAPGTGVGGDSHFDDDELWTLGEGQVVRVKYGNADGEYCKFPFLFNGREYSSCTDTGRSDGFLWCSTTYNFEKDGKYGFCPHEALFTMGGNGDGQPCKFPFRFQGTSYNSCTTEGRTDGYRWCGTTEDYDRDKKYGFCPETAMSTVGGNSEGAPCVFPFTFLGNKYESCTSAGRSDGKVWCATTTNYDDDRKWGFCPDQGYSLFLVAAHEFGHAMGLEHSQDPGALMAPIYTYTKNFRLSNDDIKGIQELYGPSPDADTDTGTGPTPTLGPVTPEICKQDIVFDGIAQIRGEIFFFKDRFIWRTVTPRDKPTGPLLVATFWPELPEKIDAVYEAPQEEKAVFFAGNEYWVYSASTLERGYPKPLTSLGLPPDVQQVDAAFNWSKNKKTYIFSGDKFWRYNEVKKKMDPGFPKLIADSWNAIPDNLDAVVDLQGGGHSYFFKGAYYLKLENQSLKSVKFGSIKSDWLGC
Chain of recombinant human MMP2 (pro‐MMP2 activated with APMA) (human) (P08253 30-660): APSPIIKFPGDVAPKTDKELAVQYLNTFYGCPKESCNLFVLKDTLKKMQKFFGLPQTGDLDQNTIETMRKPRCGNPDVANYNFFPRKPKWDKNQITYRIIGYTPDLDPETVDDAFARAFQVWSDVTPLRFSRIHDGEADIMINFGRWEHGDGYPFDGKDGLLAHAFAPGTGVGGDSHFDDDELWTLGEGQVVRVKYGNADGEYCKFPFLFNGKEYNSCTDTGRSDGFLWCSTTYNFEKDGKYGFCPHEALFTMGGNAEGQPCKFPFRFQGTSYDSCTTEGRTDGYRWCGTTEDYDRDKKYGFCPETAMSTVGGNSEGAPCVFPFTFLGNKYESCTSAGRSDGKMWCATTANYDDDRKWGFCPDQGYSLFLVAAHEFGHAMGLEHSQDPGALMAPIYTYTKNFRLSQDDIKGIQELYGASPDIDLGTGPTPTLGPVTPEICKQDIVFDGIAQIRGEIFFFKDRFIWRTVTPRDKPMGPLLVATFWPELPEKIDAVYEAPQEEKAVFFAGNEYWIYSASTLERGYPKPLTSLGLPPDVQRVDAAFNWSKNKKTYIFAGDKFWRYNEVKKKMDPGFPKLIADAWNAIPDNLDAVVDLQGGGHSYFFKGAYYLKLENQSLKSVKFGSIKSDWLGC
Chain of catalytic domain of human MMP9 (human) (P14780 20-707): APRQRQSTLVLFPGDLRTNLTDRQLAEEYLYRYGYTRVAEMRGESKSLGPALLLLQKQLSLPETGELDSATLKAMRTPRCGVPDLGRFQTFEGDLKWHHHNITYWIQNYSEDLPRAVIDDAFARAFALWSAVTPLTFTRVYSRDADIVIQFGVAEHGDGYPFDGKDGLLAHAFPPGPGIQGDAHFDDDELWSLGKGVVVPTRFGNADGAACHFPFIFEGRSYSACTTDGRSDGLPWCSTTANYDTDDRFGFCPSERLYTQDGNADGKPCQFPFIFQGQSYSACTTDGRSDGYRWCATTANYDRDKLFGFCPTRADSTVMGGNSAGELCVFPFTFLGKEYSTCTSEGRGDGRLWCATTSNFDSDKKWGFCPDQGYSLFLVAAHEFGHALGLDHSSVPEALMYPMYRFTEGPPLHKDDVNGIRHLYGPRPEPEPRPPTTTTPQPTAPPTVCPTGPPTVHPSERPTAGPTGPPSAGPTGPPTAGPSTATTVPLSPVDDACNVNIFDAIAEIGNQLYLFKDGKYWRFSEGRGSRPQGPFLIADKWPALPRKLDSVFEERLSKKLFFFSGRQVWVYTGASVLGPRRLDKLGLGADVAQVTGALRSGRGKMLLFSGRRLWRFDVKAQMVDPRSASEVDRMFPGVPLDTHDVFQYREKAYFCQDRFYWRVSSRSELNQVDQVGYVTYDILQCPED

| Binder | IC50 of inhibition of human MMP9 activity (cleavage of 5-FAM/QXL 520 FRET peptide, 37°C) [1] | IC50 of inhibition of human TACE activity (SensoLyte 520 TACE fluorimetric kit) [2] | IC50 of inhibition of human MMP2 activity (cleavage of 5-FAM/QXL 520 FRET peptide, 90 min, 37°C) [3] | IC50 of inhibition of rat MMP2 activity (cleavage of 5-FAM/QXL 520 FRET peptide, 90 min, 37°C) [4] | IC50 of inhibition of rat MMP9 activity (cleavage of 5-FAM/QXL 520 FRET peptide, 37°C) [5] |
| --- | --- | --- | --- | --- | --- |
| N‐TIMP3 (13.9 kDa N‐domain; aa 1‐120) (domain or fragment) CTCSPSHPQDAFCNSDIVIRAKVVGKKLVKEGPFGTLVYTIKQMKMYRGFTKMPHVQYIHTEASESLCGLKLEVNKYQYLLTGRVYDGKMYTGLCNFVERWDQLTLSQRKGLNYRYHLGC | 1.5 nM | 59 nM | 5.8 nM | 3.4 nM | 2.4 nM |
| N‐HSA (N‐TIMP3 fused with human serum albumin) (protein) CTCSPSHPQDAFCNSDIVIRAKVVGKKLVKEGPFGTLVYTIKQMKMYRGFTKMPHVQYIHTEASESLCGLKLEVNKYQYLLTGRVYDGKMYTGLCNFVERWDQLTLSQRKGLNYRYHLGC | 1.1 nM | 195 nM | 6 nM | 3.6 nM | 10.8 nM |
| N‐PEG (PEGylated N‐TIMP3) (domain or fragment, PEG, size and site not stated) CTCSPSHPQDAFCNSDIVIRAKVVGKKLVKEGPFGTLVYTIKQMKMYRGFTKMPHVQYIHTEASESLCGLKLEVNKYQYLLTGRVYDGKMYTGLCNFVERWDQLTLSQRKGLNYRYHLGC | 0.7 nM | 197 nM | 9.8 nM | 1.7 nM | 1.3 nM |
| N‐Fc (N‐TIMP3 fused with Fc) (Fc fusion) CTCSPSHPQDAFCNSDIVIRAKVVGKKLVKEGPFGTLVYTIKQMKMYRGFTKMPHVQYIHTEASESLCGLKLEVNKYQYLLTGRVYDGKMYTGLCNFVERWDQLTLSQRKGLNYRYHLGC | 1.6 nM | – | 9.7 nM | – | – |
| Wild‐type TIMP3 (Tissue Inhibitor of Metalloproteinase 3) (natural protein, endogenous glycosylation site at Asn184) CTCSPSHPQDAFCNSDIVIRAKVVGKKLVKEGPFGTLVYTIKQMKMYRGFTKMPHVQYIHTEASESLCGLKLEVNKYQYLLTGRVYDGKMYTGLCNFVERWDQLTLSQRKGLNYRYHLGCNCKIKSCYYLPCFVTSKNECLWTDMLSNFGYPGYQSKHYACIRQKGGYCSWYRGWAPPDKSIINATDP | 0.9 nM | 59 nM | 0.6 nM | 1.4 nM | 0.9 nM |
| v2‐Fc (TIMP3v2 fused with Fc) (Fc fusion, additional glycosylation site (F34N)) CTCSPSHPQDAFCNSDIVIRASVVGKKLVKEGPNGTLVYTIKQMKMYRGFTKMPHVQYIHTEASESLCGLKLEVNKYQYLLTGRVYDGKMYTGLCNFVERWDQLTLSQRKGLNYRYHLGCNCKIKSCYYLPCFVTSKNECLWTDMLSNFGYPGYQSKHYACIRQKGGYCSWYRGWAPPDKSIINATDP | 10 nM | 618 nM | 0.9 nM | 0.9 nM | 36 nM |
| v2‐PEG (TIMP3v2 PEGylated with 20 kDa polyethylene glycol) (natural protein, 20 kDa polyethylene glycol (PEG), site not stated; additional glycosylation site (F34N)) CTCSPSHPQDAFCNSDIVIRASVVGKKLVKEGPNGTLVYTIKQMKMYRGFTKMPHVQYIHTEASESLCGLKLEVNKYQYLLTGRVYDGKMYTGLCNFVERWDQLTLSQRKGLNYRYHLGCNCKIKSCYYLPCFVTSKNECLWTDMLSNFGYPGYQSKHYACIRQKGGYCSWYRGWAPPDKSIINATDP | 9 nM | 123 nM | 0.4 nM | 0.1 nM | 60 nM |
| TIMP3v2 (K22S/F34N TIMP3) (natural protein, additional glycosylation site (F34N), >95% occupancy by mass spectrometry; endogenous glycosylation site at Asn184) CTCSPSHPQDAFCNSDIVIRASVVGKKLVKEGPNGTLVYTIKQMKMYRGFTKMPHVQYIHTEASESLCGLKLEVNKYQYLLTGRVYDGKMYTGLCNFVERWDQLTLSQRKGLNYRYHLGCNCKIKSCYYLPCFVTSKNECLWTDMLSNFGYPGYQSKHYACIRQKGGYCSWYRGWAPPDKSIINATDP | 6.9 nM | 341 nM | 0.9 nM | 0.5 nM | 15.5 nM |
| v82‐Fc (v82 with Fc fused in the C‐terminus) (Fc fusion, additional glycosylation sites) CTCSPSHPQDAFCNSDIVIRAKVVGKKLVKEGPFGTLVYTIKQMKMYRGFTKMPNVTYIHTEASESLCGLNLTVNKYQYLLTGRVYNGTMYTGLCNFVERWDQLTLSQRKGLNYTYHLGCNCKIKSCYYLPCFVTSKNECLWTDMLSNFGYPGYQSKHYACIRQKGGYCSWYRGWAPPDKSIINATDP | 10.5 nM | 156 nM | 2.7 nM | 1 nM | 77 nM |
| v82‐HSA (TIMP3v82 fused with human serum albumin) (protein, additional glycosylation sites) CTCSPSHPQDAFCNSDIVIRAKVVGKKLVKEGPFGTLVYTIKQMKMYRGFTKMPNVTYIHTEASESLCGLNLTVNKYQYLLTGRVYNGTMYTGLCNFVERWDQLTLSQRKGLNYTYHLGCNCKIKSCYYLPCFVTSKNECLWTDMLSNFGYPGYQSKHYACIRQKGGYCSWYRGWAPPDKSIINATDP | 7.4 nM | 145 nM | 1.6 nM | 0.3 nM | 152 nM |
| WT‐HSA (wild‐type TIMP3 fused with human serum albumin) (protein) CTCSPSHPQDAFCNSDIVIRAKVVGKKLVKEGPFGTLVYTIKQMKMYRGFTKMPHVQYIHTEASESLCGLKLEVNKYQYLLTGRVYDGKMYTGLCNFVERWDQLTLSQRKGLNYRYHLGCNCKIKSCYYLPCFVTSKNECLWTDMLSNFGYPGYQSKHYACIRQKGGYCSWYRGWAPPDKSIINATDP | 0.6 nM | 12.1 nM | 0.8 nM | 0.2 nM | 50.8 nM |
| v2‐HSA (TIMP3v2 fused with human serum albumin) (protein, additional glycosylation site (F34N)) CTCSPSHPQDAFCNSDIVIRASVVGKKLVKEGPNGTLVYTIKQMKMYRGFTKMPHVQYIHTEASESLCGLKLEVNKYQYLLTGRVYDGKMYTGLCNFVERWDQLTLSQRKGLNYRYHLGCNCKIKSCYYLPCFVTSKNECLWTDMLSNFGYPGYQSKHYACIRQKGGYCSWYRGWAPPDKSIINATDP | 16 nM | 6800 nM | 5.1 nM | 0.7 nM | 65 nM |
| TIMP3v82 (H55N/Q57T/K71N/E73T/D87N/K89T/R115T) (natural protein, additional glycosylation sites, site‐specific glycosylation confirmed by mass spec analysis (data not shown); endogenous glycosylation site at Asn184) CTCSPSHPQDAFCNSDIVIRAKVVGKKLVKEGPFGTLVYTIKQMKMYRGFTKMPNVTYIHTEASESLCGLNLTVNKYQYLLTGRVYNGTMYTGLCNFVERWDQLTLSQRKGLNYTYHLGCNCKIKSCYYLPCFVTSKNECLWTDMLSNFGYPGYQSKHYACIRQKGGYCSWYRGWAPPDKSIINATDP | 2.3 nM | 29 nM | 1 nM | 0.2 nM | 14.3 nM |
